Each block holds one molecule with its values, some of them ahead of it.
Experiments:
[1] = biological target: T1, receptor for HCG in plasma membranes from bovine corpora lutea (Bos taurus, UniProt Q28005); test: Radioreceptorassay of HCG: competition with 125I-HCG for plasma membrane receptor; assay type: binding; conditions: for cross-reaction in the radioreceptorassay of HCG: highly purified preparations, 30 minutes at 37° C
T1 construct: 100 g. of tissue from approximately 25 large corpora lutea; from tissue; host or cells: bovine corpora lutea of early pregnancy (slaughterhouse), plasma membrane fraction from zonal sucrose gradient
Description: All procedures in the preparation of plasma membranes were carried out in an ice bath or at 4° C. Fresh bovine ovaries from early pregnancy (first trimester: fetus length from crown to rump up to 22 cm.) were obtained from the slaughter house and stored in liquid nitrogen until processed. In a typical experiment, 100 g. of tissue from approximately 25 large corpora lutea were cut into small pieces with a sharp steel blade and ground in 500 ml. of 10 mM. Tris-HCl buffer of pH. 7.8 containing one mM. of MgCl2, one MM. dithiothreitol, 10,000I.U. of Trasylol (FBA Pharmaceuticals) per liter and 0.25 M. sucrose. The homogenate was filtered through two layers of cheese cloth and the larger particles were reprocessed in 500 ml. of the buffer. […] The homogenate was centifuged at 650 xg. for 20 minutes in a Sorvall refrigerated centrifuge (RC B, Rotor GSA) to remove intact cells, cell debris and nuclei. The 650 × g. supernatant was again centrifuged at 13,000 g. for 20 minutes in the same centrifuge. Supernatant was this time discarded and the pellet was resuspended in 50 to 70 ml. of the Tris-HCl buffer with the aid of the Teflon-glass homogenizer. This suspension was injected in the core of a TI-14 zonal rotor (Model Beckman Spinco L3-50) spinning at 3,000 rpm. and containing 500 ml. of a linear sucrose gradient (LKB Ultrograd 11300 pump) from 30% (w/v) to 50% (w/v) sucrose and 120 ml. of cushion of 50% (w/v) sucrose (pumping rate 20 ml./min.) An overlay of 20 ml. was injected after the sample. After two hours of centrifugation at 45,000 rpm., the centrifuge was decelerated and the rotor content displaced with 55% sucrose at 20 ml./min. […]
In Table I, the incubation was performed for 30 minutes at 37° C. in a Dunaboff water bath shaker. […] The supernates were aspirated and the pellets were counted in a Packard Autogamma counter with a 51% efficiency for I^125. The standard curves and the hormonal concentration in the plasma samples were calculated by a time sharing IBM computer using logit-log transformations.

[2] = biological target: T2, PRL receptor sites in ovarian homogenates (Bos taurus, UniProt Q28172); test: Specificity of 125I-hPRL binding: displacement by unlabeled hormones; design: species or system bovine
T2 construct: from tissue; host or cells: ovarian homogenate (bovine, from the preparation section)
T2 sequence (Q28172 25-581): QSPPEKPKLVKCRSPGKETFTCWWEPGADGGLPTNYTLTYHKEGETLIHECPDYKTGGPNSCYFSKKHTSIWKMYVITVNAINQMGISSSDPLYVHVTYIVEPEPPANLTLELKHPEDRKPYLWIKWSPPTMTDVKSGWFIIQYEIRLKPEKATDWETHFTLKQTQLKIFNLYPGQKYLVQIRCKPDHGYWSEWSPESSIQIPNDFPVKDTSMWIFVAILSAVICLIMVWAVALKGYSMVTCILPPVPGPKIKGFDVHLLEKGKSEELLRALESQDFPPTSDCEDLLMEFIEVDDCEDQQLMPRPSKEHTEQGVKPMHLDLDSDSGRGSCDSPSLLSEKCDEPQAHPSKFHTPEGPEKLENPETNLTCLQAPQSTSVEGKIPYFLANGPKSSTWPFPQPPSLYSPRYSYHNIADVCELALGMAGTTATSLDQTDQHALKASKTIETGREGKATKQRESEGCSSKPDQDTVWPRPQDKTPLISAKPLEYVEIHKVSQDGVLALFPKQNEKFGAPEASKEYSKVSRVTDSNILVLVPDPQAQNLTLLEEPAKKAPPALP
Description: A reaction mixture containing 100 ul of incubation buffer containing 10 IU Trasylol (FBA Pharmaceuticals, New York, New York), 50 ul of receptor preparation equivalent to 1-300 ug of protein and 100 ul of ^125 I-hPRL (SA; 50-70 uCi/ug) were incubated at 37° C. for 2 hours in the absence and in the presence of 1 ug of unlabeled bovine PRL. At the end of incubation, 1 ml of ice cold buffer was added to all tubes and tubes were centrifuged at 5,000 rpm for 20 minutes. The supernatants were aspirated. The pellets containing receptor bound hormones were counted in an Automamma counter with a 51% efficiency for ^125 I (Packard Instrument Company, Downers Grove, Illinois). Specific binding was calculated as the difference of binding in the tubes with and without unlabeled PRL.

[3] = biological target: T3, PRL receptor sites in plasma membrane from bovine corpora lutea (Bos taurus, UniProt Q28172); test: Binding of 125I-hPRL to plasma membrane / ovarian homogenate (saturation, time course)
T3 construct: plasma membrane from bovine corpora lutea; from tissue; host or cells: bovine corpora lutea, plasma membranes
T3 sequence (Q28172 25-581): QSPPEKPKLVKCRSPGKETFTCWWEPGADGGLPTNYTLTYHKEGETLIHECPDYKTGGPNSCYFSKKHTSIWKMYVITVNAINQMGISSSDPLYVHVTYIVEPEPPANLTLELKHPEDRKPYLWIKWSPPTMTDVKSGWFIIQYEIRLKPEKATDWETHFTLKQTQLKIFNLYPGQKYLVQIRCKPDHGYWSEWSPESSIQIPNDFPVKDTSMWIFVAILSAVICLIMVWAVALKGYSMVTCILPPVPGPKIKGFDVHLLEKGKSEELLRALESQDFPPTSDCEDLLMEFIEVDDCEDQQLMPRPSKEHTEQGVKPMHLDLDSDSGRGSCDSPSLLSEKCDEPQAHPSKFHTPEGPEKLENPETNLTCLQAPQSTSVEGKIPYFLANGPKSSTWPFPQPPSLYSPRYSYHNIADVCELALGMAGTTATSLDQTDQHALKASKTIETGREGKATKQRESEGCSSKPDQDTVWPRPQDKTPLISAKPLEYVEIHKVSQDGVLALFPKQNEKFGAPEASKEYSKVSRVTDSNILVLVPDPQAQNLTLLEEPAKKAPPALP
Description: […] At the end of incubation, 1 ml of ice cold buffer was added to all tubes and tubes were centrifuged at 5,000 rpm for 20 minutes. The supernatants were aspirated. The pellets containing receptor bound hormones were counted in an Automamma counter with a 51% efficiency for ^125 I (Packard Instrument Company, Downers Grove, Illinois). Specific binding was calculated as the difference of binding in the tubes with and without unlabeled PRL. Specific binding of ^125 I-hPRL to plasma membrane from bovine corpora lutea was a saturable process.

T1 sequence (Q28005 27-701): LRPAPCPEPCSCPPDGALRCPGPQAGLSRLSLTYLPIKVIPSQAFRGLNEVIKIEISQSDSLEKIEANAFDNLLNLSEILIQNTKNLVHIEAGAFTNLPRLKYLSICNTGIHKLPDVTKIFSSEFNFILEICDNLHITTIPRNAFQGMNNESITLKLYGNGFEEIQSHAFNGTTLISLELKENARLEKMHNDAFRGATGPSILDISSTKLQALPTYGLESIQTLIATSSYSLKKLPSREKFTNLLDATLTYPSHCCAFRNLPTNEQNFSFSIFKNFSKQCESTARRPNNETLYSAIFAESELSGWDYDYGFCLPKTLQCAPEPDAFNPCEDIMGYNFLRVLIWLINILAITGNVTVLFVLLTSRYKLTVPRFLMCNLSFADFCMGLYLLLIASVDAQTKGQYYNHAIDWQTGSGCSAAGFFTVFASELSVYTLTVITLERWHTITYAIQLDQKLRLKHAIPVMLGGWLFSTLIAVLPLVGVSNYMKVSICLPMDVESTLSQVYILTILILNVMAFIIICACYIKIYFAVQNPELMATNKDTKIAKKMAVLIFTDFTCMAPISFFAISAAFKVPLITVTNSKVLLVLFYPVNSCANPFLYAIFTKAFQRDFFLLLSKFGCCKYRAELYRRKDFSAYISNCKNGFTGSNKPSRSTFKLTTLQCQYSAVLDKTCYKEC

cross-reaction in the radioreceptorassay of HCG [1]: complete lack of cross-reaction
B1: HPL: highly purified preparation of HPL, abbreviation not expanded in the text (protein, UniProt P0DML2 27-217, looked up)
Chorionic somatomammotropin …: VQTVPLSRLFDHAMLQAHRAHQLAIDTYQEFEETYIPKDQKYSFLHDSQTSFCFSDSIPTPSNMEETQQKSNLELLRISLLLIESWLEPVRFLRSMFANNLVYDTSDSDDYHLLKDLEEGIQTLMGRLEDGSRRTGQILKQTYSKFDTNSHNHDALLKNYGLLYCFRKDMDKVETFLRMVQCRSVEGSCGF

displacement of 125I-hPRL bound to receptor protein ([2]; various concentrations): capable of displacing
B2: human chorionic somatomammotropin (protein, UniProt P0DML2 27-217, looked up)
Chorionic somatomammotropin …: VQTVPLSRLFDHAMLQAHRAHQLAIDTYQEFEETYIPKDQKYSFLHDSQTSFCFSDSIPTPSNMEETQQKSNLELLRISLLLIESWLEPVRFLRSMFANNLVYDTSDSDDYHLLKDLEEGIQTLMGRLEDGSRRTGQILKQTYSKFDTNSHNHDALLKNYGLLYCFRKDMDKVETFLRMVQCRSVEGSCGF

cross-reaction in the radioreceptorassay of HCG (FIG. 2) ([1]; FIG. 2 legends: TSH, HGH, PRL are plasma from hypothyroid, acromegalic, postpartum lactation subjects): no cross-reaction
cross-reaction in the radioreceptorassay of HCG [1]: complete lack of cross-reaction
B3: prolactin (protein, UniProt P01236 29-227, looked up)
Prolactin: LPICPGGAARCQVTLRDLFDRAVVLSHYIHNLSSEMFSEFDKRYTHGRGFITKAINSCHTSSLATPEDKEQAQQMNQKDFLSLIVSILRSWNEPLYHLVTEVRGMQEAPEAILSKAVEIEEQTKRLLEGMELIVSQVHPETKENEIYPVWSGLPSLQMADEESRLSAYYNLLHCLRRDSHKIDNYLKLLKCRIIHNNNC

fraction of 125I-hPRL bound ([3]; 100 ug of homogenate, absence of unlabeled PRL): 20-20%
time to reach binding equilibrium ([3]; 37° C): 2 h
binding ([3]; incubation): little binding
B4: ^125 I-hPRL: human prolactin iodinated with 125I by chloramine-T or lactoperoxidase (protein, UniProt P01236 29-227, looked up)
Prolactin: LPICPGGAARCQVTLRDLFDRAVVLSHYIHNLSSEMFSEFDKRYTHGRGFITKAINSCHTSSLATPEDKEQAQQMNQKDFLSLIVSILRSWNEPLYHLVTEVRGMQEAPEAILSKAVEIEEQTKRLLEGMELIVSQVHPETKENEIYPVWSGLPSLQMADEESRLSAYYNLLHCLRRDSHKIDNYLKLLKCRIIHNNNC
modifications: 125I label
notes: human prolactin iodinated with 125I by chloramine-T or lactoperoxidase

potency in competing with 125I-hPRL [2]: essentially of similar potency
effect on specific binding of 125I-hPRL to ovarian homogenates ([2]; 1 ug unlabeled hormone added): inhibited
B5: bovine PRL: bovine prolactin, unlabeled (protein, UniProt P01239 31-229, looked up)
Prolactin: TPVCPNGPGNCQVSLRDLFDRAVMVSHYIHDLSSEMFNEFDKRYAQGKGFITMALNSCHTSSLPTPEDKEQAQQTHHEVLMSLILGLLRSWNDPLYHLVTEVRGMKGAPDAILSRAIEIEEENKRLLEGMEMIFGQVIPGAKETEPYPVWSGLPSLQTKDEDARYSAFYNLLHCLRRDSSKIDTYLKLLNCRIIYNNNC

potency in competing with 125I-hPRL [2]: essentially of similar potency
B6: ovine PRL: ovine prolactin (protein, UniProt P01240 31-229, looked up)
Prolactin: TPVCPNGPGNCQVSLRDLFDRAVMVSHYIHNLSSEMFNEFDKRYAQGKGFITMALNSCHTSSLPTPEDKEQAQQTHHEVLMSLILGLLRSWNDPLYHLVTEVRGMKGVPDAILSRAIEIEEENKRLLEGMEMIFGQVIPGAKETEPYPVWSGLPSLQTKDEDARHSAFYNLLHCLRRDSSKIDTYLKLLNCRIIYNNNC
